# B1: anti-GroEL2 antibody 103.11 (antibody, V domains shown)
# VH: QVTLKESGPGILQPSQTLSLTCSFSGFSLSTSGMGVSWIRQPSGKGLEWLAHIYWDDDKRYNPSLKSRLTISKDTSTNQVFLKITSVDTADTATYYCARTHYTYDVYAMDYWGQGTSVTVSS
# VL: QIVLTQSPAIMSASLGERVTMTCTASSSVSSSYLHWYRQKPGSSPKLWIYSASNLASGVPPRFSGSGSGTSYSLTISNMEAEDAATYYCHQYHRSPWTFGGGTKLEIKR
# Target: Recombinant Mtb protein GroEL2 (Mycobacterium tuberculosis, UniProt P9WPE7 1-540)
# Sequence (P9WPE7 whole entry): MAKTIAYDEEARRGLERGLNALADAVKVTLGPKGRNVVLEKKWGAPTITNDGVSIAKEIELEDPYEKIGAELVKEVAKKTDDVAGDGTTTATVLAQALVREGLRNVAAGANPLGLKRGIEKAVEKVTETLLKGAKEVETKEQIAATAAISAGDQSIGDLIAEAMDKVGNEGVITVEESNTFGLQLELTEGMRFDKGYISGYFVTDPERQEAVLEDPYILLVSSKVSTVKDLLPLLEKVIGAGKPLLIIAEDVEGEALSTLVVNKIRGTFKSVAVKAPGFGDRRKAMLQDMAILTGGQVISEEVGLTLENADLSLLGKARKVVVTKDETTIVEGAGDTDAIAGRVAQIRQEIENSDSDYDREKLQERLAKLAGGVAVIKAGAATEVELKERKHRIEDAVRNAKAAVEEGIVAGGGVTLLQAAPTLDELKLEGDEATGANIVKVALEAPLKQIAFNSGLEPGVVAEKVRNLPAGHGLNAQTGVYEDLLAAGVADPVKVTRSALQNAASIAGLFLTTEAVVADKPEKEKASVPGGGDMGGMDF
binder,measurement,value
B1,EC50 (read off the curve),~0.02 µg/mL
